We go through one protein from FireProtDB (doi:10.1021/bi00011a035).

For this series the following is noted: Aspergillus oryzae (strain ATCC 42149 / RIB 40), 25 °C, GdnHCl, Absorbance, reversible: yes, whole UniProt chain shown.

B1: Guanyl-specific ribonuclease T1 wild type, P00651 (protein)
chain: MMYSKLLTLTTLLLPTALALPSLVERACDYTCGSNCYSSSDVSTAQAAGYQLHEDGETVGSNSYPHKYNNYEGFDFSVSSPYYEWPILSSGDVYSGGSPGADRVVFNENNQLAGVITHTGASGNNFVECT
For B1, the denaturant m value reads like this: (pH 3, beta-alanine 0.1 M) 1.85 kcal/mol/M; (pH 3.5, beta-alanine 0.1 M) 1.7 kcal/mol/M; (pH 6, Bis-Tris 0.1 M) 1.36 kcal/mol/M; (pH 7, HEPES 0.1 M) 1.28 kcal/mol/M; (pH 8.5, taurine 0.1 M) 1.21 kcal/mol/M. In addition, the “denaturant midpoint (higher = more stable)” value is 2.42 M (pH 3, beta-alanine 0.1 M); 3.4 M (pH 3.5, beta-alanine 0.1 M); 6.49 M (pH 6, Bis-Tris 0.1 M); 7.26 M (pH 7, HEPES 0.1 M); 7.69 M (pH 8.5, taurine 0.1 M). Besides, the unfolding free energy was 4.48 kcal/mol (pH 3, beta-alanine 0.1 M); 5.78 kcal/mol (pH 3.5, beta-alanine 0.1 M); 8.82 kcal/mol (pH 6, Bis-Tris 0.1 M); 9.26 kcal/mol (pH 7, HEPES 0.1 M); 9.3 kcal/mol (pH 8.5, taurine 0.1 M).
